Results reported in patent publication US7301014B2, “Nucleic acid molecule encoding a novel estrogen receptor beta variant” (Wyeth, priority 2002, dated 2007).
“Also recorded” adds a separate entry of the source. Blank lines part the entries; values can stand above or below the molecule they belong to.

Legend:
Assay type in all cases: cell-based, human
[1] = test system: ERE-tk-Luciferase reporter in HepG2 cells; test: Transactivation of ERE-tk-Luciferase reporter by estrogen receptor variants, transient transfection; set-up: dose or concentration left out as unconfirmed; details: HepG2 cells transfected with receptor expression plasmid; stimulation with E2 (17b-estradiol) vs ethanol vehicle, 24 hrs; normalized to β-galactosidase
From the text: (§1) The estrogen response element (ERE) containing reporter, ERα, and ERβ expression plasmids have been described previously (Bodine, et al J Cell Biochem 1997; 65: 368-387 and Bhat et al. J Steroid Biochem Mol Biol 1998; 67(3):233-40). The ERβcx2 expression plasmid was constructed by cloning a BstXI/Xbal fragment of the original ERβcx2 clone (ef1-3/pCR 2.1) into the ERβ expression plasmid digested with the same restriction enzymes. The sequence of the clone was confirmed by sequence analysis. An SV40-β gal plasmid (Promega, Madison, Wis.) was used to normalize transfections.
(§2) Cells were transfected with lipofectamine 2000 and incubated in the presence or absence of estrogen for 24 hrs. Luciferase expression was monitored in the cell lysates. Transient transfections were performed in HepG2 cells maintained in DMEM supplemented with 10% fetal bovine serum. Twenty-four hours prior to transfection, cells are seeded in phenol red-free (PRF) DMEM containing 10% charcoal-stripped serum (csFBS), into collagen-coated 6 well plates (Biocoat, Becton Dickenson). […] 24 hrs later, […] luciferase activity was quantitated in an automated ML 1000 Luminometer (Dynex Technologies, Chantilly, Va.,). β-galactosidase activity was measured in cell lysates to normalize for differences in transfection efficiency. […]

ERβ signaling pathway = test: Cotransfection of ERE-tk reporter with ERβ and increasing amounts of ERβcx2 expression plasmid (dominant negative activity); details: ERE-tk reporter cotransfected with ERβ; E2 ligand activation; luciferase measured in 48 hrs; FIG. 10
From the text: as §1
as §2, with “serum.” for “serum. Twenty-four hours prior to transfection, cells are seeded in phenol red-free (PRF) DMEM containing 10% charcoal-stripped serum (csFBS), into collagen-coated 6 well plates (Biocoat, Becton Dickenson).”
(§3) In these experiments, the ERE-tk reporter was cotransfected with either ERα or ERβ and increasing amounts of the ERβcx2 expression plasmid. Luciferase acitivity was measured in 48 hrs. […]

ERα signaling pathway = test: Cotransfection of ERE-tk reporter with ERα and increasing amounts of ERβcx2 expression plasmid (dominant negative activity); details: ERE-tk reporter cotransfected with ERα; E2 ligand activation; luciferase measured in 48 hrs; FIG. 9
From the text: as §1
as §2, with “serum.” for “serum. Twenty-four hours prior to transfection, cells are seeded in phenol red-free (PRF) DMEM containing 10% charcoal-stripped serum (csFBS), into collagen-coated 6 well plates (Biocoat, Becton Dickenson).”
as §3

B1: ERβ: wild-type estrogen receptor beta, expressed from expression plasmid (protein, UniProt Q92731 1-530, looked up)
Estrogen receptor beta: MDIKNSPSSLNSPSSYNCSQSILPLEHGSIYIPSSYVDSHHEYPAMTFYSPAVMNYSIPSNVTNLEGGPGRQTTSPNVLWPTPGHLSPLVVHRQLSHLYAEPQKSPWCEARSLEHTLPVNRETLKRKVSGNRCASPVTGPGSKRDAHFCAVCSDYASGYHYGVWSCEGCKAFFKRSIQGHNDYICPATNQCTIDKNRRKSCQACRLRKCYEVGMVKCGSRRERCGYRLVRRQRSADEQLHCAGKAKRSGGHAPRVRELLLDALSPEQLVLTLLEAEPPHVLISRPSAPFTEASMMMSLTKLADKELVHMISWAKKIPGFVELSLFDQVRLLESCWMEVLMMGLMWRSIDHPGKLIFAPDLVLDRDEGKCVEGILEIFDMLLATTSRFRELKLQHKEYLCVKAMILLNSSMYPLVTATQDADSSRKLAHLLNAVTDALVWVIAKSGISSQQQSMRLANLLMLLSHVRHASNKGMEHLLNMKCKNVVPVYDLLLEMLNAHVLRGCKSSITGSECSPAEDSKSKEGSQNPQSQ
ligand-activated transcription of the ERE-reporter (luciferase activity), induction [1]: 8.0 fold

signaling through E2-activated ERβ (luciferase) with increasing amounts of the ERβcx2 expression construct (ERβ signaling pathway): reduced | luciferase activity of E2-activated ERα with increasing amounts of the ERβcx2 expression construct (ERα signaling pathway): diminished
B2: ERβcx2: novel human estrogen receptor beta variant; C-terminal 61 amino acids of wild-type ERβ replaced by unique 7 amino acids; tested as expression plasmid (protein)
chain: KVFSQLLSQDMNIKNSPSSLNSPSSYNCSQSILPLEHGSIYIPSSYVDSHHEYPAMTFYSPAVMNYSIPSNVTNLEGGPGRQTTSPNVLWPTPGHLSPLVVHRQLSHLYAEPQKSPWCEARSLEHTLPVNRETLKRKVSGNRCASPVTGPGSKRDAHFCAVCSDYASGYHYGVWSCEGCKAFFKRSIQGHNDYICPATNQCTIDKNRRKSCQACRLRKCYEVGMVKCGSRRERCGYRLVRRQRSADEQLHCAGKAKRSGGHAPRVRELLLDALSPEQLVLTLLEAEPPHVLISRPSAPFTEASMMMSLTKLADKELVHMISWAKKIPGFVELSLFDQVRLLESCWMEVLMMGLMWRSIDHPGKLIFAPDLVLDRDEGKCVEGILEIFDMLLATTSRFRELKLQHKEYLCVKAMILLNSSMYPLVTATQDADSSRKLAHLLNAVTDALVWVIAKSGISSQQQSMRLANLLMLLSHVRHARLYIWALKMFAALKQILRPAFPSSRECFPYCVPLMSMALSQRVHDINKVFHYFGFXKKKKKKKXXXXKKGRPLRIPR
modifications: not fully specified; X: residue not identified in the source
notes: novel human estrogen receptor beta variant; C-terminal 61 amino acids of wild-type ERβ replaced by unique 7 amino acids; tested as expression plasmid
ligand-activated transcription of the ERE-reporter (luciferase activity), induction [1]: unable to induce transcription; also recorded: unchanged
